Here are results for 4 substances from article PMC6345845.

One assay has as its target 14-3-3 (UniProt P63104). Description: AUC; sedimentation velocity, SEC buffer, 20 °C, 42 000 rpm; 14-3-3 + P-PI4KB + Rab11; stoichiometries independent of Rab11 nucleotide state.
Assay [1] addresses phosphorylated PI4KB (residues 128-799, internal deletion 423-522, T292R, phosphorylated at S294 by PKA) (human) (UniProt Q9UBF8). The description is as above.
Assay [2] has the same target. Description: AUC; sedimentation velocity, SEC buffer, 20 °C, 42 000 rpm; P-PI4KB alone (20 µM) and with Rab11; stoichiometries independent of Rab11 nucleotide state.
A further assay concerns the target PI4KB (Homo sapiens) (UniProt Q9UBF8). Particulars: cited from earlier work.
The target in assay [3] is pseudo-wt PI4KB labeled with Atto488 (human) (UniProt Q9UBF8). Description: fluorescence cross-correlation spectroscopy (FCCS); on GUV membrane; Atto488-PI4KB attached by tethered ACBD3; mCherry-Rab11-His tethered to the membrane via His tag; proteins approximately 50 nM.
Chain of pseudo-wt PI4KB labeled with Atto488 (human) (Q9UBF8 other isoform, or with tags, fused parts or gaps): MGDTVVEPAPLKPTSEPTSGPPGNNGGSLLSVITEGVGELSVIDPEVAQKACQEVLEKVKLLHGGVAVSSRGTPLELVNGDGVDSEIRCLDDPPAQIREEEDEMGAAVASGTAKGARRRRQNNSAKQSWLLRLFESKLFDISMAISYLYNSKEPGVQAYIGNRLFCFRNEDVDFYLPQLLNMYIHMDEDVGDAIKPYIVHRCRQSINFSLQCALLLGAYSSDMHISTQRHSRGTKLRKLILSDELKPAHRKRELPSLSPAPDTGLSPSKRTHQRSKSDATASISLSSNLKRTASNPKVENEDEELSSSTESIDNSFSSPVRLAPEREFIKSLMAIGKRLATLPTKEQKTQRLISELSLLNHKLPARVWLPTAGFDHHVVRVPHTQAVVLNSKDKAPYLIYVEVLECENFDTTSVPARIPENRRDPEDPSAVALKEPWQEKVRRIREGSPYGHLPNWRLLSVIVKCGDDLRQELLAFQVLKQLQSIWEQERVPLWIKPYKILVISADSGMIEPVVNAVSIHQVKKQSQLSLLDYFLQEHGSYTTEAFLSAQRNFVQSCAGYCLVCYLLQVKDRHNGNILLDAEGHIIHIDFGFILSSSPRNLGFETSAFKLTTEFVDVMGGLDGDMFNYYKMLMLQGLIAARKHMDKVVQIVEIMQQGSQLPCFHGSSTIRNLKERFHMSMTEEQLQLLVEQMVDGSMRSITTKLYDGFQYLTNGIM

Chain of phosphorylated PI4KB (residues 128-799, internal deletion 423-522, T292R, phosphorylated at S294 by PKA) (human) (Q9UBF8 other isoform, or with tags, fused parts or gaps with the stated changes): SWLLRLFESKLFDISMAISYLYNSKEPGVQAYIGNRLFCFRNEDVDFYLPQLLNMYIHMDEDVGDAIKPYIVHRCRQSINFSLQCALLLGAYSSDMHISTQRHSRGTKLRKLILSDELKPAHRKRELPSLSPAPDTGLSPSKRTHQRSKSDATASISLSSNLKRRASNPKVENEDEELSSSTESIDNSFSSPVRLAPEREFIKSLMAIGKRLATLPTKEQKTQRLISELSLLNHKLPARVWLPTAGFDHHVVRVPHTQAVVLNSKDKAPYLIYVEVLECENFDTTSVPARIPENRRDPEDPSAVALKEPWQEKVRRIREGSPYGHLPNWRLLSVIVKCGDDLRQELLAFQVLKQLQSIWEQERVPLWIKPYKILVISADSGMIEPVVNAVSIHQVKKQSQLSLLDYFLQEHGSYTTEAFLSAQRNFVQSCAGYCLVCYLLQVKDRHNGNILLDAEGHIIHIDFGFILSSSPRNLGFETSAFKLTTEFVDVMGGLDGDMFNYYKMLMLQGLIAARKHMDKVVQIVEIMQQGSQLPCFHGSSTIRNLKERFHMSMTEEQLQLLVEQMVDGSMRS
Chain of ACBD3 (Q9H3P7 whole entry): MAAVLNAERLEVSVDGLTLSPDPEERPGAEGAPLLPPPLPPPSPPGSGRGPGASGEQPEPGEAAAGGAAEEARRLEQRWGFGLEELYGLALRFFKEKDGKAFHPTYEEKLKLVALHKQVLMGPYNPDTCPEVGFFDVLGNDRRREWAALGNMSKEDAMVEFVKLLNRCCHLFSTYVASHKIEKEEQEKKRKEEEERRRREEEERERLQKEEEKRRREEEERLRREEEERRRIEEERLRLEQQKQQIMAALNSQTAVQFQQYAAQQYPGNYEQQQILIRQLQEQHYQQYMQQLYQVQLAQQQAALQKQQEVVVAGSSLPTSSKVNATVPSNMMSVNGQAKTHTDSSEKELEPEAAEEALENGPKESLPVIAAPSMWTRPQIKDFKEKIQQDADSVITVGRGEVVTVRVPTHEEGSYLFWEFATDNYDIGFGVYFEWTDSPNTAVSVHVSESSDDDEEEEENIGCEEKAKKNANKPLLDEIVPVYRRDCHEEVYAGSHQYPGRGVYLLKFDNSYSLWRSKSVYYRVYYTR
Chain of PI4KB (Homo sapiens) (Q9UBF8 2-816): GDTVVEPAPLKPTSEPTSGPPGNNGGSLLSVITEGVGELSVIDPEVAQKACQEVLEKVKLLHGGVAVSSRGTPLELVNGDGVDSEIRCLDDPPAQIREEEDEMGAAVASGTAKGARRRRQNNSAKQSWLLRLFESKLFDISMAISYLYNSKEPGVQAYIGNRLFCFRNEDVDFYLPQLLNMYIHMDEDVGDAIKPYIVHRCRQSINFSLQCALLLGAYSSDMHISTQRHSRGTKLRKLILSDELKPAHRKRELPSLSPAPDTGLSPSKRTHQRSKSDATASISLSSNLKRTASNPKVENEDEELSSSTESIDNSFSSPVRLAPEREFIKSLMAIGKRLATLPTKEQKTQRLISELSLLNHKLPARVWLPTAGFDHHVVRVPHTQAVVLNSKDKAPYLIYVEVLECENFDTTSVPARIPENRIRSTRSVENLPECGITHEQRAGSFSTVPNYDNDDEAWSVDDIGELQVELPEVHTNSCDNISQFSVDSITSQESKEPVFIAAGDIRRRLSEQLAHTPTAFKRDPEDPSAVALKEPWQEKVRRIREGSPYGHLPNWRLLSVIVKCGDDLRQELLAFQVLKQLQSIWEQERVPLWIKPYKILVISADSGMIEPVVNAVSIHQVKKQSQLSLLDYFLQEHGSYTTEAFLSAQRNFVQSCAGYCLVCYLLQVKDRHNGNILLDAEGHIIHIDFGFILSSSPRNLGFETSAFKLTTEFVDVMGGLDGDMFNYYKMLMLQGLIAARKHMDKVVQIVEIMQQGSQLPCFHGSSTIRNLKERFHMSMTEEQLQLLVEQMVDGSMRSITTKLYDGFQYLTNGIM

For orientation: stoichiometry N means the number of molecules, sites or subunits per partner or assembly. As to “14-3-3 (from UniProt P63104 1-230) (natural protein)”, the stoichiometry N with 14-3-3 came out at 2. Also, the stoichiometry N (14-3-3 chains per PI4KB) in assay [1] was found to be 2.
Turning to “Rab11 (from UniProt P62491 1-216) (natural protein)”, the stoichiometry N in assay [1] and in assay [2] was 1 throughout.
A word on the Kd: it is the constant that tells how readily two partners part at equilibrium. Consider ACBD3 (from UniProt Q9H3P7), for which, in the assay with PI4KB (Homo sapiens), the Kd was 300 nM.
Regarding “mCherry-Rab11-His (membrane tethered) (from UniProt P62491 1-216) (natural protein)”, in assay [3], the percent of Rab11 in the complex came out at 10%.
